One molecule from paper PMC9905591, “A single point mutation expands the applicability of ostreolysin A6 in biomedicine” (Scientific Reports, 2023) can be followed below.

This assay addresses T1, Ostreolysin A6 (Pleurotus ostreatus, UniProt P83467 1-138).
T1 sequence: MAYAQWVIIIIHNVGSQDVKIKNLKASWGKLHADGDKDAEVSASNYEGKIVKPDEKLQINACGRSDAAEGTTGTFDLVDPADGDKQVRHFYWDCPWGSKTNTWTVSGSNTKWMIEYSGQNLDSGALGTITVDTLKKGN
Description: cell-based or functional assay.

B1: Δ48PlyB (pleurotolysin B) (domain or fragment, Pleurotus ostreatus, UniProt Q5W9E8 49-523, looked up)
chain: SQAGDTLNDVIQDPTRRNKLINDNNLLKGIIMGRDGPVPSSRELIVRPDTLRAIINNRATIETTTMEAEFTETLMESNYNSASVKVSAPFITANSEYSESSSFKNTETEKSMYTSSRYLFPQGRIDFTTPDSGFDDVIKLSPQFTSGVQAALAKATGTEKREALQNLFQEYGHVFRTKVHIGGVLSAHTMETFSRSENETEVKQDVKAGLEGAVKGWGGGATAGHGNTQGTITTSQNRKLNVKYIVNGGDYTKIQNTEEWVASTNQSEHWRVIEVTEVTAVADLLPQPIRGQVKDLLKPLLGKWVDVEKVPGLESLPVSVYRPKGAIPAGWFWLGDTADASKALLVKPTLPARSGRNPALTSLHQGSGMTEQPFVDLPQYQYLSTYFGSFAHDTPPGSTLRGLRPDHVLPGRYEMHGDTISTAVYVTRPVDVPFPEDECFDLKSLVRVKLPGSGNPPKPRSALKKSMVLFDSGEK
B1: the “hazard ratio against buffer, Kaplan-Meier survival of Colorado potato beetle larvae on OlyA6/PlyB-treated leaf discs” value worked out at 3.5.
